Consider one molecule from paper PMC6742660, “Autoinhibition and activation mechanisms of the eukaryotic lipid flippase Drs2p-Cdc50p” (Nature Communications, 2019).

In this assay the target is T1, Drs2p (S. cerevisiae, UniProt P39524 1-1355).
T1 construct: Drs2p, Saccharomyces cerevisiae, intact protein of 1355 residues; Co-purified with endogenous Cdc50p; Residues 196-212 of the N-terminal peptide and Glu1231-Ala1309 of the C-terminal peptide are ordered in the apo map; The last 46 residues are disordered; also called Drs2p ATPase; P4 ATPase subunit of the Drs2p-Cdc50p lipid flippase; not shown: triple FLAG, C-terminal, kept
T1 sequence (looked up): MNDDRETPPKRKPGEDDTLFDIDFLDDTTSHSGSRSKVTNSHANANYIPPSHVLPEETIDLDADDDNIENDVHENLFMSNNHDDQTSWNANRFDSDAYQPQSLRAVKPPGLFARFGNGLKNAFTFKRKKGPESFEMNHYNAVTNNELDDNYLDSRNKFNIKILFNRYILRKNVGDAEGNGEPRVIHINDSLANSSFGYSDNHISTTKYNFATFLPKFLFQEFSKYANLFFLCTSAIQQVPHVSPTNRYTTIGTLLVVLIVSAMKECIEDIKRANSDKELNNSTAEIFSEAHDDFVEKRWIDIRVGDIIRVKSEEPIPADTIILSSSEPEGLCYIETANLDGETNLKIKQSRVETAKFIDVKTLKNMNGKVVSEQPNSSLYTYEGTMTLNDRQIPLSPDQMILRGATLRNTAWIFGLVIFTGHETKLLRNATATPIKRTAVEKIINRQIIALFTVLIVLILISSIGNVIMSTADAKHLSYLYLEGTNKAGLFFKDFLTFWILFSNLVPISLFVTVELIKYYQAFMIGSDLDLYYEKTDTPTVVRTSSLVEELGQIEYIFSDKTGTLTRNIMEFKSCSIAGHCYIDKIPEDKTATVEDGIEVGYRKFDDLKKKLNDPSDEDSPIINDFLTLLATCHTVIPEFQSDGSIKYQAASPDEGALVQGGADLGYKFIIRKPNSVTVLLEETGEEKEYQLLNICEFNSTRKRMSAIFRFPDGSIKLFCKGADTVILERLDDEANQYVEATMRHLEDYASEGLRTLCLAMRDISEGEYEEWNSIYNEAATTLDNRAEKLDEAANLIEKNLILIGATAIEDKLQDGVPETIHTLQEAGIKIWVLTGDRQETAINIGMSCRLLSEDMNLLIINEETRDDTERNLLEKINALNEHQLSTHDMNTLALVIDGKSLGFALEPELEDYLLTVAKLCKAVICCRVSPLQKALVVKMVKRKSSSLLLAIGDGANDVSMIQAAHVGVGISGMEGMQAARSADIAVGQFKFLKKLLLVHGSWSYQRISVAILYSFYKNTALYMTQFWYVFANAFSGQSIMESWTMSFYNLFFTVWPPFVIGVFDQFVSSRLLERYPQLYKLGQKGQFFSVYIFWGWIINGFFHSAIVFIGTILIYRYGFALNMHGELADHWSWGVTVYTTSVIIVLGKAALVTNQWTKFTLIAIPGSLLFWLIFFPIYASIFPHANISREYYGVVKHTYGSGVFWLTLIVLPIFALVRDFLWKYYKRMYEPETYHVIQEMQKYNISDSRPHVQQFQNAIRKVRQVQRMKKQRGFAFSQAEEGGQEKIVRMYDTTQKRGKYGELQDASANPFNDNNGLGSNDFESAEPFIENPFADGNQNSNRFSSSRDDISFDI
Description: cryo-EM structure; endogenous Drs2p-Cdc50p complex as purified, apo autoinhibited form, 3 mg/mL; 0.01% LMNG, 0.001% CHS, 150 mM NaCl, 20 mM Tris-HCl pH 7.4, 1 mM MgCl2, 1 mM MnCl2; 2.8 Å map. The settings on record: both partners purified.

B1: Cdc50p (natural protein, S. cerevisiae, UniProt P25656 1-391, looked up)
chain: MVSLFKRGKAPPLTKEGPTSKKPPNTAFRQQRLKAWQPILSPQSVLPLLIFVACIFTPIGIGLIVSATKVQDLTIDYSHCDTKASTTAFEDIPKKYIKYHFKSKVENKPQWRLTENENGEQSCELQFEIPNDIKKSIFIYYKITNFYQNHRRYVQSFDTKQILGEPIKKDDLDTSCSPIRSREDKIIYPCGLIANSMFNDTFSQVLSGIDDTEDYNLTNKHISWSIDRHRFKTTKYNASDIVPPPNWMKKYPDGYTDENLPDIHTWEEFQVWMRTAAFPKFYKLTLKNESASLPKGKYQMNIELNYPISLFGGTKSFVLTTNGAIGGRNMSLGVLYLIVAGLCALFGIIFLVKLIFQPRAMGDHTYLNFDDEENEDYEDVHAENTTLREIL
modifications: N-glycans at Asn-199, Asn-216 and Asn-288; disulfide bonds Cys-80 with Cys-123 and Cys-176 with Cys-190
notes: Cdc50p, Saccharomyces cerevisiae, endogenous untagged subunit of the Drs2p-Cdc50p complex; The first half of the 40-residue N-terminal peptide and the 31-residue C-terminal peptide are disordered in the map
Regarding B1, the binding result is “binds”.
